Assay results reported in the supplement of paper PMC9732359.
± gives the uncertainty stated by the source.

Test: protein stability index of a GFP-peptide fusion (yeast GPS) (PSI 1-4); higher = more stable; sorted into four equal gates, so the index is relative within each strain
Procedure, shortened: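 Yeast carrying a pooled library were grown to mid-log phase in leucine-free medium. Each library plasmid expresses Cherry and has a tiled 17-residue yeast protein peptide fused downstream of GFP. Cells were sorted into four equal gates by GFP/Cherry ratio, and plasmids from each gate were PCR-amplified, Illumina-sequenced and assigned to strains by barcode. Summing, across gates, the read frequency times the gate number gave each peptide's protein stability index.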

Row | Sequence | protein stability index (doa10∆) | protein stability index (pdr5∆) | protein stability index (san1∆) | protein stability index (ubr1∆)
1 | ITSLQDSSSQCIVDFTN [YMR129W/POM152] | 2.67 ± 0.067 | 2.92 ± 0.066 | 2.69 ± 0.058 | 2.85 ± 0.059
2 | ITVHAPLLPIVEELMKK [SNU114] | 2.38 ± 0.068 | 2.55 ± 0.054 | 2.52 ± 0.074 | 2.7 ± 0.055
3 | ITVRYWLNGKMDSKGKI [RGR1] | 3.27 ± 0.14 | 3.51 ± 0.15 | 3.31 ± 0.23 | 
4 | IVALTNAKDKERLQLLE [SMC3] | 3.22 ± 0.19 | 3.29 ± 0.13 | 3.01 ± 0.07 | 3.21 ± 0.11
5 | IVERETNWIIYPLWVMA [CSN12] | 2.81 ± 0.19 | 3.42 ± 0.24 | 2.76 ± 0.24 | 
6 | IVGKKIQEFLVVIEKRR [GRR1] | 3.23 ± 0.098 | 2.9 ± 0.098 | 3.29 ± 0.073 | 3.12 ± 0.055
7 | IVISLKNTMFEKSDALV [SMC1] | 2.42 ± 0.071 | 2.36 ± 0.062 | 2.55 ± 0.059 | 2.47 ± 0.042
8 | IVKRLYEYGAVSVLLIS [BRR2] | 2.57 ± 0.061 | 2.39 ± 0.055 | 2.24 ± 0.099 | 1.64 ± 0.054
9 | IVKTTTKQRLDAYYDLE [PRP8] | 2.77 ± 0.092 | 3.28 ± 0.069 | 3.07 ± 0.05 | 3.19 ± 0.044
10 | IVLDEVRNKSYPVYTRL [DIS3] | 2.93 ± 0.051 | 2.65 ± 0.056 | 2.99 ± 0.067 | 1.69 ± 0.027
11 | IVMEDHGVLQGTSQNYG [MED1] | 3.11 ± 0.059 | 3.02 ± 0.067 | 3.13 ± 0.062 | 3.07 ± 0.049
12 | IVPGTYIQERNPSQRPQ [RPS10B] | 3.01 ± 0.055 | 3.07 ± 0.045 | 3.08 ± 0.037 | 3.26 ± 0.038
13 | IVQAKEPNLAAQQDSTN [ECM29] | 2.51 ± 0.11 | 2.88 ± 0.054 | 2.69 ± 0.1 | 2.75 ± 0.063
14 | IVVAMTGKDCVAIACDL [PUP3] | 1.38 ± 0.062 | 1.47 ± 0.07 | 2.08 ± 0.066 | 2.31 ± 0.046
15 | IVVVIEIITSLSMRFQR [SRB8] | 2.5 ± 0.12 | 2.71 ± 0.092 | 2.18 ± 0.084 | 2.06 ± 0.087
16 | IWKESLIELSGGQRSLI [SMC2] | 1.75 ± 0.14 | 2.12 ± 0.091 | 1.98 ± 0.16 | 1.56 ± 0.12
17 | IWLLSYIQYLGHLPEVS [ECM29] | 1.62 ± 0.071 | 1.9 ± 0.06 | 2.21 ± 0.063 | 1.92 ± 0.057
18 | IYDFITLFSSIEPQVIN [ECM29] | 1.61 ± 0.07 | 2 ± 0.061 | 1.72 ± 0.18 | 2.08 ± 0.039
19 | IYDSEDPQQVFDERIKF [RPN3] | 3.05 ± 0.11 | 3.09 ± 0.089 | 3.23 ± 0.08 | 2.89 ± 0.06

Row | Sequence | protein stability index (doa10∆) | protein stability index (pdr5∆) | protein stability index (san1∆) | protein stability index (ubr1∆)
20 | IYHGNHDVGELFWKVKE [PRE2] | 1.9 ± 0.063 | 1.95 ± 0.066 | 2.02 ± 0.084 | 2.45 ± 0.049
21 | IYSVEKKISRLPKFLTV [UBP6] | 2.04 ± 0.065 | 2.07 ± 0.066 | 2.14 ± 0.091 | 2.46 ± 0.035
22 | KAAFIRVNGSEFVHKYL [RPT3] | 2.22 ± 0.062 | 2.46 ± 0.073 | 2.15 ± 0.087 | 2.77 ± 0.08
23 | KADIGKPGRMPFNFTVT [CDC53] | 2.33 ± 0.042 | 2.75 ± 0.048 | 2.73 ± 0.058 | 2.89 ± 0.05
24 | KAEKAEIRKRRASSLKA [RPS6A] | 2.9 ± 0.25 | 3.48 ± 0.11 |  | 3.06 ± 0.13
25 | KAERVEDQKVVDKALIA [RPL6A] | 3.25 ± 0.057 | 3.5 ± 0.06 | 3.4 ± 0.044 | 3.5 ± 0.05
26 | KAFTNWNKRDFMAFINA [ISW2] | 1.26 ± 0.078 | 1.25 ± 0.091 | 1.25 ± 0.16 | 1.16 ± 0.062
27 | KAGVEAISQSLRDESLT [PRE5] | 3.05 ± 0.079 | 3.09 ± 0.082 | 3.37 ± 0.082 | 3.07 ± 0.067
28 | KAIFQFVCRGMAATQTI [ECM29] | 1.52 ± 0.051 | 1.73 ± 0.048 | 1.46 ± 0.17 | 1.48 ± 0.049
29 | KAKTTKKVVLRLECVKC [RPL42A] | 1.64 ± 0.22 | 1.52 ± 0.17 |  | 1.81 ± 0.065
30 | KAKYNTPKYRLVVRFTN [RPL5] | 1.39 ± 0.049 | 1.53 ± 0.073 | 1.24 ± 0.21 | 1.12 ± 0.068
31 | KALDNACGAFININEFA [CDC53] | 2.56 ± 0.12 | 3 ± 0.14 | 2.71 ± 0.094 | 2.82 ± 0.15
32 | KALQSIGQLIGEVMKEL [RPT4] | 3.35 ± 0.092 | 3.17 ± 0.15 | 3.39 ± 0.095 | 3.36 ± 0.058
33 | KAMDIPIGRHEELLAQY [SWP82] | 2.07 ± 0.044 | 2.25 ± 0.043 | 2.13 ± 0.068 | 2 ± 0.029
34 | KAPLEDDDKKPDDDKIV [RPT1] | 2.67 ± 0.15 | 3.11 ± 0.17 | 3.19 ± 0.14 | 3.26 ± 0.067
35 | KASRKSVGLPSKVASSL [ECM29] | 2.81 ± 0.055 | 2.79 ± 0.066 | 2.69 ± 0.056 | 2.84 ± 0.052
36 | KCGSVTVRLIPAPRGSG [RPS2] | 1.35 ± 0.11 | 2.07 ± 0.072 | 1.4 ± 0.17 | 1.99 ± 0.1
37 | KCGVISPRFNVKIGDIE [RPS22A] | 3.28 ± 0.1 | 3.35 ± 0.093 | 2.78 ± 0.11 | 3.43 ± 0.079
38 | KDDMKVDDAIELALKTL [PRE9] | 2.76 ± 0.25 | 3.52 ± 0.1 | 3.18 ± 0.077 | 3.65 ± 0.09
